The results in this text go back to patent US20090048164A1 (WALTER AND ELIZA HALL INSTITUTE OF MEDICAL RESEARCH, published 2009).

As usually defined, the IC50 is the concentration that inhibits the measured activity by half. High values mean weaker potency in that assay, low ones greater potency in that assay.

In one assay the target is Bcl-2. In words: competition phage ELISA.
The target of a further assay is T1, Bcl-w.
T1 chain: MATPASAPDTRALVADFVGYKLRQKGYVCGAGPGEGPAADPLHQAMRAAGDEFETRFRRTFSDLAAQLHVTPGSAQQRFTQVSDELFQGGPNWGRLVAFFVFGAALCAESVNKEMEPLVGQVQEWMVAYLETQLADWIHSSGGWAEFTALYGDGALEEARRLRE
In words: competition phage ELISA. For orientation: In an ELISA, binding on a coated surface is turned into a signal by an enzyme label.

Sequence of Bcl-2 (chain, as listed by the source): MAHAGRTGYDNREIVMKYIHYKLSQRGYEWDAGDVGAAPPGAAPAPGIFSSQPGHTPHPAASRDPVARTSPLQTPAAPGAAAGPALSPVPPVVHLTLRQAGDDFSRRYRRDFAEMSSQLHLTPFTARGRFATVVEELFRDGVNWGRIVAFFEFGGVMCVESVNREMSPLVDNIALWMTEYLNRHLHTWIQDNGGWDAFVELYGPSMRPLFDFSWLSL

B1: Bad BH3 S22A, phage-displayed (peptide)
peptide: NLWAAQRYGRELRRMSDEFVDAFKKG
notes: M13 phage display: FLAG-26mer-GGGT-g3(249-406)
For B1, in the assay with Bcl-2, the Fold/wt was 1 fold and the IC50 stood at 19 nM. For the same molecule, in the assay with Bcl-w, the Fold/wt came out at 2 fold and the IC50 is 77 nM.

B2: Bad BH3 G26E, phage-displayed (peptide)
peptide: NLWAAQRYGRELRRMSDEFVDSFKKE
notes: as for B1
In the assay with Bcl-2, B2 gave a Fold/wt of 1 fold and an IC50 of 15 nM. In the assay with Bcl-w, this molecule showed a Fold/wt of 1 fold and an IC50 of 37 nM.

B3: Bad BH3 R10A, phage-displayed (peptide)
peptide: NLWAAQRYGAELRRMSDEFVDSFKKG
notes: as for B1
In the case of B3, in the assay with Bcl-2, the Fold/wt was 1 fold and the IC50 worked out at 14 nM. In the assay with Bcl-w, the Fold/wt worked out at 1 fold and the half-inhibitory concentration (IC50) came out at 41 nM.

B4: Bad BH3 wild type, phage-displayed (peptide)
peptide: NLWAAQRYGRELRRMSDEFVDSFKKG
notes: M13 phage display: FLAG-26mer-GGGT-g3(249-406); also called wtBad
On to B4, for which the Fold/wt with Bcl-2 and in the assay with Bcl-w was 1 fold each time. Further, the half-inhibitory concentration (IC50) worked out at 13 nM with Bcl-2 and 37 nM in the assay with Bcl-w.

B5: Bad BH3 K25A, phage-displayed (peptide)
peptide: NLWAAQRYGRELRRMSDEFVDSFKAG
notes: as for B1
Turning to B5, in the assay with Bcl-2, the Fold/wt turned out to be 1 fold and the IC50 is 13 nM. In the assay with Bcl-w, the Fold/wt turned out to be 1 fold and the 50% inhibitory concentration (IC50) amounted to 46 nM.

B6: Bad BH3 E18A, phage-displayed (peptide)
peptide: NLWAAQRYGRELRRMSDAFVDSFKKG
notes: as for B1
In the assay with Bcl-2, B6 showed a Fold/wt of 2 fold and an IC50 of 29 nM. Moreover, in the assay with Bcl-w, the Fold/wt is 1 fold and the 50% inhibitory concentration (IC50) amounted to 55 nM.

B7: Bad BH3 M15A, phage-displayed (peptide)
peptide: NLWAAQRYGRELRRASDEFVDSFKKG
notes: as for B1
On to B7, for which, in the assay with Bcl-2, the Fold/wt came to 3 fold and the half-maximal inhibitory concentration (IC50) was 43 nM. In addition, in the assay with Bcl-w, the Fold/wt was determined as 1 fold and the 50% inhibitory concentration (IC50) worked out at 43 nM.

B8: Bad BH3 R13A, phage-displayed (peptide)
peptide: NLWAAQRYGRELARMSDEFVDSFKKG
notes: as for B1
As to B8, in the assay with Bcl-2, the Fold/wt was determined as 1 fold and the IC50 stood at 19 nM. In the assay with Bcl-w, this molecule registered a Fold/wt of 1 fold and an IC50 of 52 nM.

B9: Bad BH3 R14A, phage-displayed (peptide)
peptide: NLWAAQRYGRELRAMSDEFVDSFKKG
notes: as for B1
In the assay with Bcl-2, B9 registered a Fold/wt of 5 fold and a 50% inhibitory concentration (IC50) of 57 nM. In the assay with Bcl-w, the Fold/wt was 2 fold and the concentration for half-maximal inhibition (IC50) turned out to be 86 nM.

B10: Bad BH3 K24A, phage-displayed (peptide)
peptide: NLWAAQRYGRELRRMSDEFVDSFAKG
notes: as for B1
B10: in the assay with Bcl-2, the Fold/wt worked out at 1 fold and the concentration for half-maximal inhibition (IC50) is 14 nM. In the assay with Bcl-w, this molecule had a Fold/wt of 1 fold and a concentration for half-maximal inhibition (IC50) of 54 nM.

B11: Bad BH3 V20A, phage-displayed (peptide)
peptide: NLWAAQRYGRELRRMSDEFADSFKKG
notes: as for B1
Take B11: in the assay with Bcl-2, the Fold/wt came to 1 fold and the half-inhibitory concentration (IC50) came to 13 nM. For the same molecule, in the assay with Bcl-w, the Fold/wt was 1 fold and the IC50 came out at 38 nM.

B12: Bad BH3 D21A, phage-displayed (peptide)
peptide: NLWAAQRYGRELRRMSDEFVASFKKG
notes: as for B1
For the molecule B12, in the assay with Bcl-2, the Fold/wt was determined as 1 fold and the IC50 turned out to be 17 nM. In the assay with Bcl-w, the Fold/wt is 1 fold and the 50% inhibitory concentration (IC50) is 28 nM.
